Source: patent US20230340151A1 (Pfizer, published 2023)

Assays:
Experiment in all cases: peptide DELFIA ELISA;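 note: epitope mapping using overlapping 20-mer GUCY2C peptides covering residues 1-440, extracellular into transmembrane domain, coated at 20 µg/ml as target antigen and probed with antibodies or GUCY2C-CD3 bispecifics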
GUCY2C_ECD Peptide 23 = target: T1, GUCY2C_ECD Peptide 23 (human)
T1 peptide: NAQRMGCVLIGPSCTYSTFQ
Description: (§1) Arrays were reconstituted with acetonitrile to 100 μg/ml and were then further diluted to 20 μg/ml with sodium carbonate/bicarbonate buffer. Purified antibodies or GUCY2c-CD3 bispecifics were then tested by Delfia ELISA for binding to the different peptides using Delfia ELISA methods previously discussed, with diluted peptides used as the target antigen.

GUCY2C_ECD Peptide 28 = target: T2, GUCY2C_ECD Peptide 28 (human)
T2 peptide: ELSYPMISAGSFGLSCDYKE
Description: as §1

GUCY2C_ECD Peptide 67 = target: T3, GUCY2C_ECD Peptide 67 (human)
T3 peptide: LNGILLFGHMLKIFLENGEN
Description: as §1

GUCY2C_ECD Peptide 68 = target: T4, GUCY2C_ECD Peptide 68 (human)
T4 peptide: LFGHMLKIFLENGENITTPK
Description: as §1

GUCY2C_ECD Peptide 46 = target: T5, GUCY2C_ECD Peptide 46 (human)
T5 peptide: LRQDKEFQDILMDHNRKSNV
Description: as §1

GUCY2C_ECD Peptide 77 = target: T6, GUCY2C_ECD Peptide 77 (human)
T6 peptide: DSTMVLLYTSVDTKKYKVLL
Description: as §1

GUCY2C_ECD Peptide 75 = target: T7, GUCY2C_ECD Peptide 75 (human)
T7 peptide: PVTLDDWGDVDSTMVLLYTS
Description: as §1

GUCY2C_ECD Peptide 76 = target: T8, GUCY2C_ECD Peptide 76 (human)
T8 peptide: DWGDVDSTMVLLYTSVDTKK
Description: as §1

GUCY2C_ECD Peptide 25 = target: T9, GUCY2C_ECD Peptide 25 (human)
T9 peptide: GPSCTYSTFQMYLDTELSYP
Description: as §1

GUCY2C_ECD Peptide 50 = target: T10, GUCY2C_ECD Peptide 50 (human)
T10 peptide: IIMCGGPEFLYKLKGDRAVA
Description: as §1

GUCY2C_ECD Peptide 35 = target: T11, GUCY2C_ECD Peptide 35 (human)
T11 peptide: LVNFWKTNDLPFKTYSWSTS
Description: as §1

GUCY2C_ECD Peptide 86 = target: T12, GUCY2C_ECD Peptide 86 (human)
T12 peptide: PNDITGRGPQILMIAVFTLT
Description: as §1

GUCY2C_ECD Peptide 62 = target: T13, GUCY2C_ECD Peptide 62 (human)
T13 peptide: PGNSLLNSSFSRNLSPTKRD
Description: as §1

GUCY2C_ECD Peptide 82 = target: T14, GUCY2C_ECD Peptide 82 (human)
T14 peptide: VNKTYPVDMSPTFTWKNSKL
Description: as §1

GUCY2C_ECD Peptide 72 = target: T15, GUCY2C_ECD Peptide 72 (human)
T15 peptide: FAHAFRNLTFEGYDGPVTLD
Description: as §1

GUCY2C_ECD Peptide 79 = target: T16, GUCY2C_ECD Peptide 79 (human)
T16 peptide: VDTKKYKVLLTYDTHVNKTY
Description: as §1

GUCY2C_ECD Peptide 31 = target: T17, GUCY2C_ECD Peptide 31 (human)
T17 peptide: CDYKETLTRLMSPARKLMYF
Description: as §1

GUCY2C_ECD Peptide 5 = target: T18, GUCY2C_ECD Peptide 5 (human)
T18 peptide: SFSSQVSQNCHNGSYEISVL
Description: as §1

GUCY2C_ECD Peptide 88 = target: T19, GUCY2C_ECD Peptide 88 (human)
T19 peptide: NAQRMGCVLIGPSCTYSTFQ
Description: as §1

GUCY2C_ECD Peptide 33 = target: T20, GUCY2C_ECD Peptide 33 (human)
T20 peptide: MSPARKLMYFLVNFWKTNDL
Description: as §1

GUCY2C_ECD Peptide 54 = target: T21, GUCY2C_ECD Peptide 54 (human)
T21 peptide: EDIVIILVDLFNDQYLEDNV
Description: as §1

GUCY2C_ECD Peptide 45 = target: T22, GUCY2C_ECD Peptide 45 (human)
T22 peptide: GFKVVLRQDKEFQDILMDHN
Description: as §1

GUCY2C_ECD Peptide 40 = target: T23, GUCY2C_ECD Peptide 40 (human)
T23 peptide: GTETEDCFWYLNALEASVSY
Description: as §1

GUCY2C_ECD Peptide 22 = target: T24, GUCY2C_ECD Peptide 22 (human)
T24 peptide: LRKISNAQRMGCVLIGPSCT
Description: as §1

GUCY2C_ECD Peptide 84 = target: T25, GUCY2C_ECD Peptide 84 (human)
T25 peptide: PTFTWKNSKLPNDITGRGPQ
Description: as §1

GUCY2C_ECD Peptide 26 = target: T26, GUCY2C_ECD Peptide 26 (human)
T26 peptide: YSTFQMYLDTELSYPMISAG
Description: as §1

GUCY2C_ECD Peptide 56 = target: T27, GUCY2C_ECD Peptide 56 (human)
T27 peptide: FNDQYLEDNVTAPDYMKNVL
Description: as §1

GUCY2C_ECD Peptide 2 = target: T28, GUCY2C_ECD Peptide 2 (human)
T28 peptide: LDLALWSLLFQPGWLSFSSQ
Description: as §1

GUCY2C_ECD Peptide 57 = target: T29, GUCY2C_ECD Peptide 57 (human)
T29 peptide: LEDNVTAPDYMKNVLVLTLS
Description: as §1

GUCY2C_ECD Peptide 42 = target: T30, GUCY2C_ECD Peptide 42 (human)
T30 peptide: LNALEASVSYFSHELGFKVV
Description: as §1

GUCY2C_ECD Peptide 34 = target: T31, GUCY2C_ECD Peptide 34 (human)
T31 peptide: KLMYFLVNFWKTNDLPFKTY
Description: as §1

GUCY2C_ECD Peptide 89 = target: T32, GUCY2C_ECD Peptide 89 (human)
T32 peptide: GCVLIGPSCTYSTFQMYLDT
Description: as §1

GUCY2C_ECD Peptide 63 = target: T33, GUCY2C_ECD Peptide 63 (human)
T33 peptide: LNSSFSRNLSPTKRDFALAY
Description: as §1

GUCY2C_ECD Peptide 64 = target: T34, GUCY2C_ECD Peptide 64 (human)
T34 peptide: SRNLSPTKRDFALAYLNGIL
Description: as §1

GUCY2C_ECD Peptide 10 = target: T35, GUCY2C_ECD Peptide 10 (human)
T35 peptide: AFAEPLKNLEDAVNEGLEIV
Description: as §1

GUCY2C_ECD Peptide 18 = target: T36, GUCY2C_ECD Peptide 18 (human)
T36 peptide: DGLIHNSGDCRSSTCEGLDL
Description: as §1

B1: GUCY2C-1608 (bispecific antibody)
chain 1: DIQLTQSPSSLSASVGDRVTITCRASESVDYYGSSLLQWYQQKPGKAPKLLIYAASKLASGVPSRFSGSGSGTDFTLTISSLQPEDFATYYCQQTRKAYTFGQGTKLEIKGGGSGGGGEVQLVESGGGLVQPGGSLRLSCAASGFTFSDYYMTWVRQAPGKGLEWVAFIRNQARGYTSDHNPSVKGRFTISRDNAKNSLYLQMNSLRAEDTAVYYCARDRPSYYVLDYWGQGTTVTVSSGCPPCPAPEAAGAPSVFLFPPKPKDTLMISRTPEVTCVVVDVSHEDPEVKFNWYVDGVEVHNAKTKPREEQYNSTYRVVSVLTVLHQDWLNGKEYKCKVSNKALPAPIEKTISKAKGQPREPQVCTLPPSREEMTKNQVSLWCLVKGFYPSDIAVEWESNGQPENNYKTTPPVLDSDGSFFLYSKLTVDKSRWQQGNVFSCSVMHEALHNHYTQKSLSLSPG
chain 2: DIQMTQSPSSLSASVGDRVTITCTSSQSLFNVRSQKNYLAWYQQKPGKAPKLLIYWASTRESGVPSRFSGSGSGTDFTLTISSLQPEDFATYYCKQSYDLFTFGGGTKVEIKGGGGSGGGGEVQLVESGGGLVQPGGSLRLSCAASGFTFSSYWMHWVRQAPGKGLEWIGEIKPSNELTNVHEKFKDRFTISVDKAKNSAYLQMNSLRAEDTAVYYCTRTITTTEGYWFFDVWGQGTLVTVSSGCPPCPAPEAAGAPSVFLFPPKPKDTLMISRTPEVTCVVVDVSHEDPEVKFNWYVDGVEVHNAKTKPREEQYNSTYRVVSVLTVLHQDWLNGKEYKCKVSNKALPAPIEKTISKAKGQPREPQVYTLPPCREEMTKNQVSLSCAVKGFYPSDIAVEWESNGQPENNYKTTPPVLDSDGSFFLVSKLTVDKSRWQQGNVFSCSVMHEALHNHYTQKSLSLSPG
notes: also called GUCY2c CD3 bispecific
GUCY2C_ECD Peptide 23
  DELFIA TRF: 96.2
GUCY2C_ECD Peptide 28
  DELFIA TRF: 96.8
GUCY2C_ECD Peptide 67
  DELFIA TRF: 93.2
GUCY2C_ECD Peptide 68
  DELFIA TRF: 73.5
GUCY2C_ECD Peptide 46
  DELFIA TRF: 106
GUCY2C_ECD Peptide 77
  DELFIA TRF: 98.2
GUCY2C_ECD Peptide 75
  DELFIA TRF: 88.2
GUCY2C_ECD Peptide 76
  DELFIA TRF: 102
GUCY2C_ECD Peptide 25
  DELFIA TRF: 131
GUCY2C_ECD Peptide 50
  DELFIA TRF: 161
GUCY2C_ECD Peptide 35
  DELFIA TRF: 108
GUCY2C_ECD Peptide 86
  DELFIA TRF: 110
GUCY2C_ECD Peptide 62
  DELFIA TRF: 91.2
GUCY2C_ECD Peptide 82
  DELFIA TRF: 99.2
GUCY2C_ECD Peptide 72
  DELFIA TRF: 116
GUCY2C_ECD Peptide 79
  DELFIA TRF: 130
GUCY2C_ECD Peptide 31
  DELFIA TRF: 90.2
GUCY2C_ECD Peptide 5
  DELFIA TRF: 109
GUCY2C_ECD Peptide 88
  DELFIA TRF: 120
GUCY2C_ECD Peptide 33
  DELFIA TRF: 87.5
GUCY2C_ECD Peptide 54
  DELFIA TRF: 112
GUCY2C_ECD Peptide 45
  DELFIA TRF: 108
GUCY2C_ECD Peptide 40
  DELFIA TRF: 85.2
GUCY2C_ECD Peptide 22
  DELFIA TRF: 93.5
GUCY2C_ECD Peptide 84
  DELFIA TRF: 133
GUCY2C_ECD Peptide 26
  DELFIA TRF: 104
GUCY2C_ECD Peptide 56
  DELFIA TRF: 81
GUCY2C_ECD Peptide 2
  DELFIA TRF: 106
GUCY2C_ECD Peptide 57
  DELFIA TRF: 99.8
GUCY2C_ECD Peptide 42
  DELFIA TRF: 96.5
GUCY2C_ECD Peptide 34
  DELFIA TRF: 99
GUCY2C_ECD Peptide 89
  DELFIA TRF: 115
GUCY2C_ECD Peptide 63
  DELFIA TRF: 110
GUCY2C_ECD Peptide 64
  DELFIA TRF: 116
GUCY2C_ECD Peptide 10
  DELFIA TRF: 105
GUCY2C_ECD Peptide 18
  DELFIA TRF: 126
